Each block holds one molecule with its values, some of them ahead of it.
How the values were obtained:
EGFR L858R = EGFR L858R (Homo sapiens, UniProt P00533, L858R); format: biochemical; conditions: enzyme optimization; 2.5 nM EGFR L858R, 1 μM peptide, 100 μM ATP, 60 min
RET M918T = RET M918T (Homo sapiens, UniProt P07949, M918T); experiment: LIMS-Kinase assay, RET M918T
RET M918T, sequence (P07949 29-1114 M918T): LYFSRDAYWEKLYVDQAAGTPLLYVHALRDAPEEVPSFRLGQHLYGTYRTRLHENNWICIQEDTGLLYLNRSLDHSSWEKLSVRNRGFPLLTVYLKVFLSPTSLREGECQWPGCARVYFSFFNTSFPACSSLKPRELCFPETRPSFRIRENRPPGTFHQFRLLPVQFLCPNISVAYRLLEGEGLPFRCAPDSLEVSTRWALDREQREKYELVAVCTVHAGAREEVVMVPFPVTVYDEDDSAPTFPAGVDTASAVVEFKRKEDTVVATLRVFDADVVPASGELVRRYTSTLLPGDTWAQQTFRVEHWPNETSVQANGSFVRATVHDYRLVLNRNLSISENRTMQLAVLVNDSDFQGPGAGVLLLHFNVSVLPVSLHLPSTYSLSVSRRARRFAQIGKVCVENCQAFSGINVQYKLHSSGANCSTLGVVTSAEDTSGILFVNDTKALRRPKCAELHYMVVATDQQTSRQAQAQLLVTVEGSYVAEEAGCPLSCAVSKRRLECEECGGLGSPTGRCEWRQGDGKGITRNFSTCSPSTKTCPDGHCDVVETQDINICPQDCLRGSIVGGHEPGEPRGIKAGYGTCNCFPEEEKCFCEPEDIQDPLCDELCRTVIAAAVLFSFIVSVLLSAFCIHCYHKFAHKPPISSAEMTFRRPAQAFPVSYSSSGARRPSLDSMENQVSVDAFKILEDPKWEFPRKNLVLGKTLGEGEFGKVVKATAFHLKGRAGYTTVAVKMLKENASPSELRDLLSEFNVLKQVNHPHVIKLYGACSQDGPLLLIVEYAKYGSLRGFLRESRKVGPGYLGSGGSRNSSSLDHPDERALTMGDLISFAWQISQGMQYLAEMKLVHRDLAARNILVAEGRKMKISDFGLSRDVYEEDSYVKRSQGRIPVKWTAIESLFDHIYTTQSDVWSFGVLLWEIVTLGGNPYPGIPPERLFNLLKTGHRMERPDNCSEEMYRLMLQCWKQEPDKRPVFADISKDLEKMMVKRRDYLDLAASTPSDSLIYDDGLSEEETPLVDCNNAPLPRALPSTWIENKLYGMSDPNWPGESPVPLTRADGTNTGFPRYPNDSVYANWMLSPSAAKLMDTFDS

substrate converted (EGFR L858R): approximately 20%
Molecule: MS-Csktide1: kinase substrate peptide, sequence KEEIYFFF

substrate converted (RET M918T; enzyme optimization, 2.5 nM RET M918T, 1 μM peptide, 100 μM ATP, 60 min): Approximately 39%
Molecule: MS-Csktide2: kinase substrate peptide, sequence KEEIYFFFG

potency in LIMS-Kinase assay compared to previously reported value (RET M918T; 0.7 nM vs. […]): more than six times higher
Molecule: COc1ccc(CN2C3CC2CN(c2ccc(-c4cc(OCC(C)(C)O)cn5ncc(C#N)c45)cn2)C3)cn1 [selpercatinib, reference compound]

From publication PMC10783653 (Cell reports. Physical science, 2023)
